In PMC4821239, “Molecular architecture of the Dam1 complex–microtubule interaction” (Open Biology, 2016):

B2: Dad4 (natural protein, budding yeast, UniProt P69851 1-72, looked up)
chain: MENPHEQVQANILSRIIGNVKRLNESVAILNQELVTINNRNKNLEIMGAICDNYHSSVQFNLEATNNKKPPL
notes: Dad4, subunit of the budding yeast Dam1 complex; Subunit inside the recombinant 10-subunit complex; source: expressed and purified as part of the Dam1 complex as described [3]

Key:
Dam1 = target: T1, Dam1 (budding yeast, UniProt P53267 1-343); test: cross-linking; BS3, Dam1 complex at 0.3 mg/ml in BRB80, room temperature 40-60 min, digested in solution, mass spectrometry; some links may be between oligomerizing complexes; conditions: both partners purified
T1 construct: Dam1, subunit of the budding yeast Dam1 complex; Subunit inside the recombinant 10-subunit complex; also called Dam1 subunit; source: expressed and purified as part of the Dam1 complex as described [3]
T1 sequence (looked up): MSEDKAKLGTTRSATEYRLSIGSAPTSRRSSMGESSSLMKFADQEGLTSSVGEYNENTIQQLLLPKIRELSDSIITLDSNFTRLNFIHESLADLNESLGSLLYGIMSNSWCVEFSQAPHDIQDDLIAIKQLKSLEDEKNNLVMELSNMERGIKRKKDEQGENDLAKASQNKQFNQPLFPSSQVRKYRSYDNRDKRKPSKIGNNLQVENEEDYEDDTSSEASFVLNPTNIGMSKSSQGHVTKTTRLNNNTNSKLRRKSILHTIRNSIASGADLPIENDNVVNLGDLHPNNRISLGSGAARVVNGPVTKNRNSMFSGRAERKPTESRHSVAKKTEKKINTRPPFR

Dad2 [1] = target: T2, Dad2 (budding yeast, UniProt P36162 1-133); test: affinity purification with mass spectrometry; mutant Dam1 complexes purified by the His tag on Hsk3 (Ni-NTA), then Superose 6 size-exclusion chromatography; proteins identified by mass spectrometry; conditions: partners not purified
T2 construct: Dad2, subunit of the budding yeast Dam1 complex; Subunit inside the recombinant 10-subunit complex; source: expressed and purified as part of the Dam1 complex as described [3]
T2 sequence (looked up): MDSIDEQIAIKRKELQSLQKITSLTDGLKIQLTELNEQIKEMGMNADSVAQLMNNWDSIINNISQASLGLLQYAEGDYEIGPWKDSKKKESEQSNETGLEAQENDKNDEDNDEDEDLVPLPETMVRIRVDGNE

Dad4 = target: B2; test: as above; conditions: partners not purified
Ask1 = target: T3, Ask1 (budding yeast, UniProt P35734 1-292); test: cross-linking; EDC with Sulfo-NHS, Dam1 complex assembled on taxol-stabilized microtubules in BRB80, pellet washed, room temperature 1 h, digested in solution, mass spectrometry; conditions: both partners purified
T3 construct: Ask1, subunit of the budding yeast Dam1 complex; Subunit inside the recombinant 10-subunit complex; source: expressed and purified as part of the Dam1 complex as described [3]
T3 sequence (looked up): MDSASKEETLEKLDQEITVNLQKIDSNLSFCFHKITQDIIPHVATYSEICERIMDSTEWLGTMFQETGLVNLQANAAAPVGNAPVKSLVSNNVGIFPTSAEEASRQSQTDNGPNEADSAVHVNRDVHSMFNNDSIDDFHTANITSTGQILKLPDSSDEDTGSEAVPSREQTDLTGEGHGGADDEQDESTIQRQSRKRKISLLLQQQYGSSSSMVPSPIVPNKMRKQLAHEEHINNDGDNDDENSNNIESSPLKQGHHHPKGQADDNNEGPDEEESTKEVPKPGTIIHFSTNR

Dad2 [2] = target: T2, Dad2; test: cross-linking; BS3, Dam1 complex at 0.05 mg/ml in solution; cross-linked species (approx. 110, 220 and 440 kDa) separated by SDS-PAGE, bands cut out, in-gel trypsin digestion, mass spectrometry; conditions: both partners purified
Spc34 = target: T4, Spc34 (budding yeast, UniProt P36131 1-295); test: cross-linking; BS3, Dam1 complex at 0.3 mg/ml in BRB80, room temperature 40-60 min, digested in solution, mass spectrometry; some links may be between oligomerizing complexes; conditions: both partners purified
T4 construct: Spc34, subunit of the budding yeast Dam1 complex; Subunit inside the recombinant 10-subunit complex; source: expressed and purified as part of the Dam1 complex as described [3]
T4 sequence (looked up): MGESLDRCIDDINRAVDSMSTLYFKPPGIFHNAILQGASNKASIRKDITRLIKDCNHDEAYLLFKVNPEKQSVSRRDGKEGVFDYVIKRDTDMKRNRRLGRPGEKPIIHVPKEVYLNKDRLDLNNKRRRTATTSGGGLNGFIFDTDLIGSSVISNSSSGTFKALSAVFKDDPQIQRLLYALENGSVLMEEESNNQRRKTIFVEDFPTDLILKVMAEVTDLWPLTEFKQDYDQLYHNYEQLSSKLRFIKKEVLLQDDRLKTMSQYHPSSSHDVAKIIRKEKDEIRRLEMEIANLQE

Spc19 = target: T5, Spc19 (budding yeast, UniProt Q03954 1-165); test: as above; conditions: both partners purified
T5 construct: Spc19, subunit of the budding yeast Dam1 complex; Subunit inside the recombinant 10-subunit complex; also called Sp19; source: expressed and purified as part of the Dam1 complex as described [3]
T5 sequence (looked up): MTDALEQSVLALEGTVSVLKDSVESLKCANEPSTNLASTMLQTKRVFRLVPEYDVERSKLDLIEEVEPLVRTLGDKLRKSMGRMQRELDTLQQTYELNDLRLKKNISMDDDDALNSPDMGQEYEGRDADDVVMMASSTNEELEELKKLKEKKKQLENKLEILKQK

Measured: binding result

B1: Hsk3 (natural protein, budding yeast, UniProt P69852 1-69, looked up)
chain: MNANKQRQYNQLAHELRELQTNLQETTKQLDIMSKQCNENLVGQLGKVHGSWLIGSYIYYMEQMLGKTQ
notes: Hsk3, subunit of the budding yeast Dam1 complex; Subunit inside the recombinant 10-subunit complex; also called his-tagged Hsk3; source: expressed and purified as part of the Dam1 complex as described [3]; mutant complexes by Ni-NTA and Superose 6
binds: Dam1 | Dad2 [1] | Dad4

B2
not listed: Dad2 [1] | Dad4
binds: all other assays above
